From the RNAGym collection of RNA variant scans (doi:10.1073/pnas.2313332121)
This sample holds only a part of the variants without activity.

B1: TPR 5TU (parent)
chain: GGAUCUUCUCGAUCUAACAAAAAAGACAAAUCUGCCACAAAGCUUGAGAGCAUCUUCGGAUGCAGAGGCGGCAGCCUUCGGUGGCGCGAUAGCGCCAACGUUCUCAACUAUGACACGCAAAACGCGUGCUCCGUUGAAUGGAGUUUAUCAUG

Variants of: B1
Assay: polymerase ribozyme fitness, log enrichment relative to wild type (log ratio); higher = more active; in vitro selection for triplet polymerase activity
Procedure, shortened: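 Frozen incubation at −7 °C formed the core of a single, triplicate in vitro selection round applied to PCR-built, transcribed mutant libraries of each subunit of a heterodimeric triplet polymerase ribozyme. Extended constructs were gel-excised, captured with streptavidin beads and amplified by RT-PCR, and input and output libraries were Illumina-sequenced with a filter of ≥10 input reads and ≥1 read per output. Fitness is the logarithm of genotype enrichment relative to wild-type enrichment, with inverse-variance-weighted replicate averaging, and the logarithm is base 2.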

| Variant | polymerase ribozyme fitness (log ratio) |
| --- | --- |
| GGAUCUUCUCGAUCUAACAAAAAAGACAAAUCUGCCACAAAGCUUGAGAGCAUCUUCGGAUGCAGAGGCGGUAGCCUUCGGUGGCGCGAUAGCGCCAACGUUCUCAACUAUGACACGCAAAACGCGUGCUCCGUUGAAUGGAGUUGAUCAUG [C72U U146G] | -0.793 |
| GGAUCUUCUCGAUCUAACAAAAAAGACAAAUCUGCCACAAAGCUUGAGAGCAUCUUCGGAUGCAGAGGCGGCGGCCUUCGGUGGCGCGAUAGCGCCAACGUUCUCAACUAUGACACGCAGAACGCGUGCUCCGUUGAAUGGAGUUUAUCAUG [A73G A120G] | 0.0734 |
| GGAUCUUCUCGAUCUAACAAAAAAGACAAAUCUGCCACAAAGCUUGAGAGCAUCUUCGGAUGCAGAGGCGGCCGCCUUCGGUGGCGCGAUAGCGCCAACGUUCUCAACUAUGACACGCAAAACGCGAGCUCCGUUGAAUGGAGGUUAUCAUG [A73C U127A U144G] | ≤ -4.2 |
| GGAUCUUCUCGAUCUAACAAAAAAGACAAAUCUGCCACAAAGCUUGAGAGCAUCUUCGGAUGCAGAGGCGGUAGUCUUCGGUGGCGAGAAAGCGGCAACGUGCUCAACUAUGACACGCAAAACGCGUGCUCCGUUGAAUGGAGUUUAUCGUG [C72U C75U C87A U90A C95G U102G A150G] | ≤ -4.2 |
| GGAUCUUCUCGAUCUAACAAAAAAGACAAAUCUGCCACAAAGCUUGAGAGCAUCUUCGGAUGCAGAGGCGGCCGCCUUCGGUGGCGCGAUAGCGCAAACGUUCUCAACUAUGACACGCAAAACGCGUGCUCCGUUGAAUGGAGUUUAUCAUG [A73C C96A] | -3.14 |
| GGAUCUUCUCGAUCUAACAAAAAAGACAAAUCUGCCACAAAGCUUGAGAGCAUCUUCGGAUGCAGAGGCGGUAGCCUUCGGUGGCGAGAUAGCGCCAACGUUCUCAACUAUGACACCCAAAACGCGUGCUCCGUUGAAUGGAUUUUAUCAUG [C72U C87A G117C G143U] | ≤ -4.2 |
| GGAUCUUCUCGAUCUAACAAAAAAGACAAAUCUGCCACAAAGCUUGAGAGCAUCUUCGGAUGCAGAGGCGGUAGCCUACGGUGACGCGAUAGCGCCAACGUUCUCAACUAUGACACGCAAAACGCGUGCUCCGUUGAAUGGAGUUUAUCAUG [C72U U78A G84A] | ≤ -4.2 |
| GGAUCUUCUCGAUCUAACAAAAAAGACAAAUCUGCCACAAAGCUUGAGAGCAUCUUCGGAUGCAGAGGCGGCGGCCUUCGGUGGCGCGAUAGCGCCAACGUUCUCCACUAUGACACGCAAAACGCGUGCUCCGUUGAAUGUAGUUUAUCAUG [A73G A106C G141U] | -1.34 |
| GGAUCUUCUCGAUCUAACAAAAAAGACAAAUCUGCCACAAAGCUUGAGAGCAUCUUCGGAUGCAGAGGCGGCCGCCUUCGGUGGCGCGAUAGCGCCAACGUUCUCUACUCUGACACGCAAAACGCGUGCUCCGUUGAAUGGAGUUUAUCAUG [A73C A106U A110C] | ≤ -4.2 |
| GGAUCUUCUCGAUCUAACAAAAAAGACAAAUCUGCCACAAAGCUUGAGAGCAUCUUCGGAUGCAGAGGCGGUAGCCUUCGGUGGCACGAUAGCGCCAACCUUCUCAACUAUGACACGCAAAACGCGUGCUACGUAGAAUGGAGUUUAUCAUG [C72U G86A G100C C131A U135A] | ≤ -4.2 |
| GGAUCUUCUCGAUCUAACAAAAAAGACAAAUCUGCCACAAAGCUUGAGAGCAUCUUCGGAUGCAGAGGCGGCCGCCUUCGGUGGCGCGAUAUCGCCAACGUUCUCAACUAUGACAGGCAAAACGCGUGCUCCGUUGAAUGGAGCUUAUCAUG [A73C G92U C116G U144C] | ≤ -4.2 |
| GGAUCUUCUCGAUCUAACAAAAAAGACAAAUCUGCCACAAAGCUUGAGAGCAUCUUCGGAUGCAGAGGCGGUAGCCUUCGGUGGCGCGAUAGCGCCAACGCUCUCAACUAUGACACGCAAAACGCGUGCUCCGUUGAAUGGAGUUUAUCAUG [C72U U101C] | 0.482 |
| GGAUCUUCUCGAUCUAACAAAAAAGACAAAUCUGCCACAAAGCUUGAGAGCAUCUUCGGAUGCAGAGGCGGCCGCCUUCGGUGGCGAGAUAGCGCCAACGUUCUCAACUAUGACACGCAAAACGCGUGCUCCGUUGAAUGGAGUUUAUCAUG [A73C C87A] | ≤ -4.2 |
| GGAUCUUCUCGAUCUAACAAAAAAGACAAAUCUGCCACAAAGCUUGAGAGCAUCUUCGGAUGCAGAGGCGGUAGCCUUCGGUGGGGCGAUAGCGCCAAGGUUCUCAACUAUGAGACGCAAAACGCGUGCUCCGUUGAAUGGAGUUUAUCAUG [C72U C85G C99G C114G] | ≤ -4.2 |
| GGAUCUUCUCGAUCUAACAAAAAAGACAAAUCUGCCACAAAGCUUGAGAGCAUCUUCGGAUGCAGAGGCGGUAGCCUUCGGUGGCGAGAUAGCGCCAACGUUCUCAACUAUGACACGCAAAACGCGUGCUCCGUUGCAAGGAGUUUAUCAUG [C72U C87A A137C U139A] | ≤ -4.2 |
| GGAUCUUCUCGAUCUAACAAAAAAGACAAAUCUGCCACAAAGCUUGAGAGCAUCUUCGGAUGCAGAGGCGGUAGCCCUCGGUGGCGCGAUAGCGCCAACGUUCUCAACUAUGACACGGAAAACGCGUGCUCCGUUGAAUGGAGUUUAUCAUG [C72U U77C C118G] | ≤ -4.2 |
| GGAUCUUCUCGAUCUAACAAAAAAGACAAAUCUGCCACAAAGCUUGAGAGCAUCUUCGGAUGCAGAGGCGGUAGCCUUAGGUGGUGCGAUAGCGCCAACGUUCUCAACUAUGACACGCAAAACGCGUGCUCCGUUGAAUGGAGUUUAUCAUG [C72U C79A C85U] | ≤ -4.2 |
| GGAUCUUCUCGAUCUAACAAAAAAGACAAAUCUGCCACAAAGCUUGAGAGCAUCUUCGGAUGCAGAGGCGGCGGCCUUCGGUGGCGCGAUAGCGCCAACGUUCUCAACUAUGACACGCAAACCGCGUGCUCCGUUGAAUGGAGUUUAUCAUG [A73G A122C] | 0.468 |
| GGAUCUUCUCGAUCUAACAAAAAAGACAAAUCUGCCACAAAGCUUGAGAGCAUCUUCGGAUGCAGAGGCGGCGGCCUUCGGUGGCGCGAUAGCGCCAACGUUCUCAACUAUGACGCGCAAAACGCGUGCUCCGUUGAAUGAAGUUUAUCAUG [A73G A115G G141A] | -2.44 |
